Test system: Ac transposase (Zea mays)
Test: cell_activity
Details: in Arabidopsis; GUS recombination stimulated over no-Ac control; Ds excision footprint confirmed by PCR and sequencing; binding not measured directly

Ds element in GU-Ds-US construct
activity: > 1000 fold

Source: patent US6984774
